Test results as given in US20180155411A1.

B1: mAb #49 (antibody, V domains shown)
VH: DVQLVESGGGLVQPGGSVRLSCSASRFTFSNYAMYWVRQAPGKGLEYVSSISSDGGSTYYAESVKGRFTISRDNSKNTLYLQMRSLRAEDAAVYYCVTDVLRLPYSTGWSPGDFIYWGQGTLVTVSS
VL: DIQMTQSPSILYASVGDRVTITCRASQSVSSWLAWYQQKPGKVPKLLIYQASTLENGVPSRFSGSGSGTEFILTISSLQPDDFATYYCQHYNVLWTFGQGTKVEIK
B2: mAb #46 (antibody, V domains shown)
VH: QVQLQESGPGLVKPSETLSLTCTVSGGSINSYYWSWIRQSPGKGLEWIGYVFYSGITKYNPSLQSRVTISLDMGKNQFSLKLTSVNAADAAVYYCARNFPSYTPDWFFDLWGRGTLVTVSS
VL: EIVLTQSPGTLSLSPGERATLSCRASQSVSSDNLAWYQQKPGQPPRLLIYGASHRATGIPDRFSGSGSGTDFTLTISRLEPEDFAVYHCQQYGSSPLTFGGGTKVEIK
B3: mAb #57 (antibody, V domains shown)
VH: QVQLVESGGGVVQSGRSLRLSCAASGFTFRSYAMHWVRQAPGKGLEWVADLSLDGSHKYADSVRGRFTISSDSSKNTVYLQMNSLRTEDTAIYYCARAAGIMVAGTFLTEFYFDYWGQGTLVTVSS
VL: QSVLTQPPSVSGAPGQRVTISCTGSSSNIGAGYDVHWYQQLPGTAPKLLIYGNIKRPSGVPDRFSGSKSGTSASLAITGLQTEDEADYYCQSYDSSLSAYYVFGTGTRVTVL

Key:
[1] = target: VP4 of rotavirus strain 116E (G9P[11]) (human rotavirus), Q99706; assay: cell-based or functional assay
[2] = target: VP7 of rotavirus strain 116E (G9P[11]) (human rotavirus), Q99706; assay: cell-based or functional assay
VP7 of rotavirus strain 116E (G9P[11]) (human rotavirus), Q99706, sequence (Q99706 22-377): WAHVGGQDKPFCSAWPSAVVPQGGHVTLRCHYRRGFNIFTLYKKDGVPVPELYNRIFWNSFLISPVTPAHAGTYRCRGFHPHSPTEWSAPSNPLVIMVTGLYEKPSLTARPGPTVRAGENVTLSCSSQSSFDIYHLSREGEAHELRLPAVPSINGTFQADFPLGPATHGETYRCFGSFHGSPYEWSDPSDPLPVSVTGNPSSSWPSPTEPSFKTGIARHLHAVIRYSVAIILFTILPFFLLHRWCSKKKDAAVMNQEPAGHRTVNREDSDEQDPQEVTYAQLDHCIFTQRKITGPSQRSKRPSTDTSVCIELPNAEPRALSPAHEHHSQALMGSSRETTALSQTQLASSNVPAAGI

VP4 of rotavirus strain 116E (G9P[11]) (human rotavirus), Q99706, sequence (Q99706 22-377): as above

Binder	in vitro neutralization [1] [ng/mL]	in vitro neutralization [2] [ng/mL]
B1	> 625	
B2		> 625
B3		> 625
